Paper PMC7837216, “ISRIB Blunts the Integrated Stress Response by Allosterically Antagonising the Inhibitory Effect of Phosphorylated eIF2 on eIF2B” (Molecular Cell, 2021)

Tests used:
[1] = target: human eIF2B decamer, wild type (human) (UniProt Q14232); assay: fluorescence polarisation; FAM-ISRIB (2.5-5 nM) bound to eIF2B, displaced by rising eIF2(αP) (0-2.5 μM) or P-eIF2α-NTD (0-40 μM); equilibrium, 30 min at room temperature; 20 mM HEPES-KOH pH 7.4, 150 mM KCl, 2 mM MgCl2, 1 mM TCEP, 0.05 mg/mL BSA, 0.01% Triton X-100; four-parameter log[inhibitor] fit
[2] = target: biotinylated, phosphorylated N-terminal domain of human eIF2α (human) (UniProt P05198); assay: BLI; biotinylated P-eIF2α-NTD on streptavidin sensors, eIF2B in solution, without ISRIB (DMSO); 30°C; 20 mM HEPES pH 7.4, 150 mM KCl, 2 mM MgCl2, 1 mM TCEP, 0.05 mg/mL BSA, 0.01% Triton X-100; plateau values of 2-phase association fits against eIF2B concentration (9-150 nM)
[3] = target: biotinylated, phosphorylated N-terminal domain of human eIF2α (human) (UniProt P05198); assay: BLI; as a3 but with ISRIB (1 μM) in the association and dissociation buffer

Substance	IC50 [1]	K1/2max [2]	K1/2max [3]
biotinylated, phosphorylated N-terminal domain of human eIF2α (from UniProt P05198 1-187) (domain or fragment)	3 µM	–	–
phosphorylated human eIF2 trimer, eIF2(αP) (from UniProt P05198 1-315; P20042 1-333; P41091 1-472) (complex)	0.25 µM	–	–
human eIF2B decamer, wild type (from UniProt Q14232 1-305; P49770 1-351; Q9NR50 1-452; Q9UI10 1-523; Q13144 1-721) (complex)	–	15.2 nM	29.8 nM
